Like-named read-outs stand apart in the source and are kept apart here.
Tests used:
[1] = biological target: T1, IGF-1R (receptor for insulin-like growth factor 1), endogenous on human tumor cell lines (human, UniProt P08069 31-1367); assay: summary sentence of Example 3 (FACS on cells)
T1 construct: whole, on cells; Target of the anti-IGF-1R arm in cell assays
Method: (§1) 1×10⁵ MCF7 cells or 1×10⁵ ADRr cells are incubated at room temperature for 2 hours with each of ELI-7, ILE-10 and ILE-12, two anti-ErB3 antibodies and one anti-IGF-1R antibody at 2 uM, followed by 12 subsequent 3-fold dilutions. Then using goat anti-HSA-Alexa647 conjugated antibody as the detection antibody, cells are incubated on ice for 40 minutes. Cell binding dissociation constants (measures of binding affinities) of the antibodies on MCF7 and ADRr cells are assessed by FACS and apparent dissociation constants are determined for each protein. The following results were obtained (see also FIGS. 14A and 14B): […]

[2] = biological target: T2, ErbB3 (HER3), endogenous on human tumor cell lines (human, UniProt P21860 20-1342); assay: summary sentence of Example 3 (FACS on cells)
T2 construct: Target of the anti-ErbB3 arm in cell assays
Method: as §1

[3] = biological target: T1, IGF-1R (receptor for insulin-like …); assay: cell-based or functional assay
[4] = biological target: T2, ErbB3 (HER3), endogenous on human tumor …; assay: cell-based or functional assay
[5] = biological target: T1, IGF-1R (receptor for insulin-like …); assay: cell-based or functional assay; remark: listed apart in the source
[6] = biological target: T2, ErbB3 (HER3), endogenous on human tumor …; assay: cell-based or functional assay; remark: listed apart in the source
[7] = biological target: T3, rat ErbB3-His (rat, UniProt Q62799 20-641, limits assumed); assay: ELISA, species specific ErbB3-His coated plate
T3 construct: not shown: His tag, not further described for this species form
Method: (§2) 96-well Reacti-bind® plates (Pierce, Fisher cat. No. PI-I5041) are coated with 50 ul of species specific ErbB3-His or IGF-1R-His (R&D Systems, cat. No. 348-RB and 305-GR, respectively) at 2 ug/ml in PBS and incubated overnight at 4° C. The next day plates are washed with PBS+0.05% Tween-20 (PBS-T) and blocked for 1 hr. at room temperature with 100 ul of Protein-Free Blocking Buffer (Pierce). Plates are washed with PBS-T and 50 ul of each PBA is added in duplicate. Concentrations start at 500 nM (in PBS-T) and included ten additional two-fold dilutions and one blank (PBS-T only). Plates are incubated at room temperature for two hours and then washed with PBS-T. 50 ul of anti-Fc-HRP (Jackson Labs) is added at 1:40,000 in PBS-T, and plates are incubated in the dark for 1 hr. at room temperature. Plates are again washed with PBS-T and 100 ul of TMB substrate (Thermo Scientific, TMB and peroxide solution mixed 1:1) is added. The plates are incubated for 5-15 minutes at room temperature until a blue color develops, and the reaction is stopped with 100 ul of STOP solution (Cell Signaling Technology). The absorbance is read at 450 nm on a PerkinElmer Envision plate reader, and binding curves are generated using GraphPad Prism.

[8] = biological target: T4, mouse ErbB3-His (mouse, UniProt Q61526 20-641, limits assumed); assay: ELISA, species specific ErbB3-His coated plate
T4 construct: not shown: His tag, not further described for this species form
Method: as §2

[9] = biological target: T5, mouse IGF-1R-His (mouse, UniProt Q60751 31-936, limits assumed); assay: ELISA, species specific IGF-1R-His coated plate
T5 construct: not shown: His tag, not further described
Method: as §2

[10] = biological target: T1, IGF-1R (receptor for insulin-like …); assay: cell-based or functional assay; remark: listed apart in the source
[11] = biological target: T1, IGF-1R (receptor for insulin-like …); assay: cell-based or functional assay; remark: listed apart in the source
[12] = biological target: T2, ErbB3 (HER3), endogenous on human tumor …; assay: cell-based or functional assay; remark: listed apart in the source

T1 sequence (P08069 31-1367): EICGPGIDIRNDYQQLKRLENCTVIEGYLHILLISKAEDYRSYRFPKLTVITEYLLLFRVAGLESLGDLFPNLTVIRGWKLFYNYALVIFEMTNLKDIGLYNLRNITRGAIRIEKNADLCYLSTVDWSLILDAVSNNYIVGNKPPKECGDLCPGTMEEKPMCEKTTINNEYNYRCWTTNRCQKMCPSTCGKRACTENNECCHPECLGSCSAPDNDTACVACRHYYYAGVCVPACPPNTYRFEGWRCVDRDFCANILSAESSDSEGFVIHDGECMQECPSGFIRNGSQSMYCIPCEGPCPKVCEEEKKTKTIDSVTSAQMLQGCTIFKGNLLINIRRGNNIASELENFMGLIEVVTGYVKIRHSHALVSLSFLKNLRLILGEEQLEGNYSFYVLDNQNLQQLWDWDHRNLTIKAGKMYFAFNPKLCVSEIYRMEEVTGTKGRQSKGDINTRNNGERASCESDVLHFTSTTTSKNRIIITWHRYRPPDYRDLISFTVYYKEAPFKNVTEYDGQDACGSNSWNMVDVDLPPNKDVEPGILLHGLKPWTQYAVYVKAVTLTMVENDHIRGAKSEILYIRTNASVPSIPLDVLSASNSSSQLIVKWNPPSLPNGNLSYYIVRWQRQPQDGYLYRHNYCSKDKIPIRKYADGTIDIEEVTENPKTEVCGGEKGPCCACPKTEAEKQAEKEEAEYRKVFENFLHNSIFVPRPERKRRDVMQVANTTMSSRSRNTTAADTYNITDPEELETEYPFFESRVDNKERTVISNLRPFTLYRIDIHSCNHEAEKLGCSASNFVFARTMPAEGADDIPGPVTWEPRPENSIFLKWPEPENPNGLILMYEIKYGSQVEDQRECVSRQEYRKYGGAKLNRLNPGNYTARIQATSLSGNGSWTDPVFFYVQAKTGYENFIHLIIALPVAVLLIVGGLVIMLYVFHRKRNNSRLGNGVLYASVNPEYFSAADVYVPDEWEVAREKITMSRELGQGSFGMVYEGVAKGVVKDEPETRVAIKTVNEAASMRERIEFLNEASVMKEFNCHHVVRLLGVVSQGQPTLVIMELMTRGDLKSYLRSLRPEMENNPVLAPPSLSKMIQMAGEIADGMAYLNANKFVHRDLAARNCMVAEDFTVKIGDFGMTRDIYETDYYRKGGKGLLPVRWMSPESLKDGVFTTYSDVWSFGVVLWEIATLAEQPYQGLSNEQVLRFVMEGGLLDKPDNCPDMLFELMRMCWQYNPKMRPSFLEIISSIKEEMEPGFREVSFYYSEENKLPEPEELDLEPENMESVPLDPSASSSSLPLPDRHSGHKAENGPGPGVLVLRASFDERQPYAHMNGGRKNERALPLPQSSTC
T2 sequence (P21860 20-1342 limits assumed): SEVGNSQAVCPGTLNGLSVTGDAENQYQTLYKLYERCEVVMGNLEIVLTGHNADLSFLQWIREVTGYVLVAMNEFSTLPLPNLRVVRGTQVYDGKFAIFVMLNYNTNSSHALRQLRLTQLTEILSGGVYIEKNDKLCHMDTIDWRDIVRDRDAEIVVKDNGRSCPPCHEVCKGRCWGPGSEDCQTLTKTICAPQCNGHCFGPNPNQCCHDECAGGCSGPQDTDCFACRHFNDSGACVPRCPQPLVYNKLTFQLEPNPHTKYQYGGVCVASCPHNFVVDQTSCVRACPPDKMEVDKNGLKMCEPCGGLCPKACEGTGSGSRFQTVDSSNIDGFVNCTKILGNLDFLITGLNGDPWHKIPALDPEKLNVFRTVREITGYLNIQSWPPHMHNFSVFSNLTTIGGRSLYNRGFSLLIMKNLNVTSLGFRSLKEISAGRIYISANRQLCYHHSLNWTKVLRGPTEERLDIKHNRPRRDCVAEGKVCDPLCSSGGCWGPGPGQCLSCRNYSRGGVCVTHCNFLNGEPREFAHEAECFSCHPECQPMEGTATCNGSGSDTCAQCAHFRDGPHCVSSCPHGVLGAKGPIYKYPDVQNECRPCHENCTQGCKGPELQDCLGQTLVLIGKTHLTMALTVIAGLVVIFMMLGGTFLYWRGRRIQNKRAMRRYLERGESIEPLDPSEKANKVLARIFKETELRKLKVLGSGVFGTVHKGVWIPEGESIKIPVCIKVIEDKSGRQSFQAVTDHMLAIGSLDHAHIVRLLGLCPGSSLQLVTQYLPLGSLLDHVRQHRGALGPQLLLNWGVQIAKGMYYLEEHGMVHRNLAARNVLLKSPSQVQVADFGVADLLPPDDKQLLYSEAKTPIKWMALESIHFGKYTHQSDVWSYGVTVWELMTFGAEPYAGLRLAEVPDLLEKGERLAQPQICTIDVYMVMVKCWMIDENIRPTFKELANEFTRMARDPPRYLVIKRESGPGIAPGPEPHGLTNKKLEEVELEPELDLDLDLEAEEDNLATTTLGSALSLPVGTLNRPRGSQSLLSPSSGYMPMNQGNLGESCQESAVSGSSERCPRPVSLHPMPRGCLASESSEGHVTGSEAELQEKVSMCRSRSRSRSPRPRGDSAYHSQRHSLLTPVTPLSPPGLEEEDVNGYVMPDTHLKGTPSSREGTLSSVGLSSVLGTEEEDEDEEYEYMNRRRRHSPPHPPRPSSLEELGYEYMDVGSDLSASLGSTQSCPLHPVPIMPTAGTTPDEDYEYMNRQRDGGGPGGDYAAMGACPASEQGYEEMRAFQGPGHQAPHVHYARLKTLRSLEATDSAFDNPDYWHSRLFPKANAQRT
T3 sequence (Q62799 20-641 limits assumed): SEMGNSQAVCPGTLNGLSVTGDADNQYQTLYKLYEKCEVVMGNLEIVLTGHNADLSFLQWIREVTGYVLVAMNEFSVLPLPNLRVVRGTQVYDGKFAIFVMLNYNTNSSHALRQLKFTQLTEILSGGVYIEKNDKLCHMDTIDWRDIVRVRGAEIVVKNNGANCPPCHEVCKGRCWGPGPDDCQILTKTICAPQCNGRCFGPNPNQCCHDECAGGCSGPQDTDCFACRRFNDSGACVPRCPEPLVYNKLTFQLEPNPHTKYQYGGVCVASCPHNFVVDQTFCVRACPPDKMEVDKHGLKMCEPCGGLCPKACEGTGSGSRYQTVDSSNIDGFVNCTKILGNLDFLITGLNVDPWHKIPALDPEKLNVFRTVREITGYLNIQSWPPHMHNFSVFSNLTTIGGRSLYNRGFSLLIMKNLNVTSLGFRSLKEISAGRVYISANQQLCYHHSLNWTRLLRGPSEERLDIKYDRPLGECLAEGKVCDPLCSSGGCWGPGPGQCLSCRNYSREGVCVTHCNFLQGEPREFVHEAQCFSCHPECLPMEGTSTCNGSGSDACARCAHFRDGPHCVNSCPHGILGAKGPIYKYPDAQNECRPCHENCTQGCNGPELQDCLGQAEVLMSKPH
T4 sequence (Q61526 20-641 limits assumed): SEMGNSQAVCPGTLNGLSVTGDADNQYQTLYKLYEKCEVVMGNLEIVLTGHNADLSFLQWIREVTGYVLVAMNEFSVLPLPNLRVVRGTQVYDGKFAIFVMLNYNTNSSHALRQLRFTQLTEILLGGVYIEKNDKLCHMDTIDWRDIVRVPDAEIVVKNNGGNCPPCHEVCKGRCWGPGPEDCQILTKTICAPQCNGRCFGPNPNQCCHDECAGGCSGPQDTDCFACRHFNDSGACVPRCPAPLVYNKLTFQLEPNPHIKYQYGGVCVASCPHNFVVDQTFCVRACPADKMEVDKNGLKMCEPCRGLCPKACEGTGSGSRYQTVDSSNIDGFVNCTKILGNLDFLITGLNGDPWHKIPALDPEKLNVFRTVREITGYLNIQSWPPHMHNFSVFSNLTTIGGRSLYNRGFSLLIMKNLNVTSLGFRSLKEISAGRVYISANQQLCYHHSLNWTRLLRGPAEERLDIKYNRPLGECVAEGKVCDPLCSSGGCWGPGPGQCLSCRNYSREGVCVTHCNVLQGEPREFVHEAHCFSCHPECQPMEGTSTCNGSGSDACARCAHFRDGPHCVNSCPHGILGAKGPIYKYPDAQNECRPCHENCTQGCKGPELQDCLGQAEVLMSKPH
T5 sequence (Q60751 31-936 limits assumed): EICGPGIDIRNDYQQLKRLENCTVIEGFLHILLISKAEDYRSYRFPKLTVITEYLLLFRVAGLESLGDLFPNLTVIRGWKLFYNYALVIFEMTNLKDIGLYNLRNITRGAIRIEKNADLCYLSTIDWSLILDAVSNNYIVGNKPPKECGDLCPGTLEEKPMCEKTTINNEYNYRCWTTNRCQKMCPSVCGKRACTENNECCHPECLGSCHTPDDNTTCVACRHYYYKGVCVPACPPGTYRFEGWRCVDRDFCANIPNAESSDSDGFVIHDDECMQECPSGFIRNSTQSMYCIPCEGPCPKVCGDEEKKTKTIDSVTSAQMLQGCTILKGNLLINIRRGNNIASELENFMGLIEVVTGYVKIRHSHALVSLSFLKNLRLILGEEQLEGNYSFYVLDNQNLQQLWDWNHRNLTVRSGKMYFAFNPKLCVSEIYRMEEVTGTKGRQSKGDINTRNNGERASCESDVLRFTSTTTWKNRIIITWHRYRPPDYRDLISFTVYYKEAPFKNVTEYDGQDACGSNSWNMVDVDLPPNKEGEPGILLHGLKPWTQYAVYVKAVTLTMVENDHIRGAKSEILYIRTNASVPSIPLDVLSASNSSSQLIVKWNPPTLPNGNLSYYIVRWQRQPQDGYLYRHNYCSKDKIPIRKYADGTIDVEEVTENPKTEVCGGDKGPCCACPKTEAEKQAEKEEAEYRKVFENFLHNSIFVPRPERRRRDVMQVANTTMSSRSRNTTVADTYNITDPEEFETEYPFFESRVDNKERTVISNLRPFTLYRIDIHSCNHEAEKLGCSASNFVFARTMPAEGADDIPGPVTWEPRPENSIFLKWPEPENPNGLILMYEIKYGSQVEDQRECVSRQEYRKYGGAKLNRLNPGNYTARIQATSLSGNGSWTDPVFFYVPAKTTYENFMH

B1: ILE-10 (bispecific antibody, human IgG2, kappa)
heavy: EVQLLESGGGLVQPGGSLRLSCAASGFTFSVYPMHWVRQAPGKGLEWVSSISSSGGATRYADSVKGRFTISRDNSKNTLYLQMNSLRAEDTAVYYCAKDFYDILTGNAFDIWGQGTMVTVSSASTKGPSVFPLAPCSRSTSESTAALGCLVKDYFPEPVTVSWNSGALTSGVHTFPAVLQSSGLYSLSSVVTVPSSNFGTQTYTCNVDHKPSNTKVDKTVERKCCVECPPCPAPPVAGPSVFLFPPKPKDTLMISRTPEVTCVVVDVSHEDPEVQFNWYVDGVEVHNAKTKPREEQFNSTFRVVSVLTVVHQDWLNGKEYKCKVSNKGLPAPIEKTISKTKGQPREPQVYTLPPSREEMTKNQVSLTCLVKGFYPSDIAVEWESNGQPENNYKTTPPMLDSDGSFFLYSKLTVDKSRWQQGNVFSCSVMHEALHNHYTQKSLSLSPGKGGGGSGGGGSGGGGSLQEVQLLESGGGLVQPGGSLRLSCAASGFTFSAYNMRWVRQAPGKGLEWVSVIYPSGGATRYADSVKGRFTISRDNSKNTLYLQMNSLRAEDTAVYYCARGYYYYGMDVWGQGTLVTVSSASTGGGGSGGGGSGGGGSQSVLTQPPSASGTPGQRVTISCSGSDSNIGRNYIYWYQQFPGTAPKLLIYRNNQRPSGVPDRISGSKSGTSASLAISGLRSEDEAEYHCGTWDDSLSGPVFGGGTKLTVLS
light: DIQMTQSPSSFSASTGDRVTITCRASQGISSYLAWYQQKPGKAPKLLIYAASTLQSGVPSRFSGSGSGTDFTLTISSLQPEDSATYYCQQYFTFPLTFGGGTKVEIKRTVAAPSVFIFPPSDEQLKSGTASVVCLLNNFYPREAKVQWKVDNALQSGNSQESVTEQDSKDSTYSLSSTLTLSKADYEKHKVYACEVTHQGLSSPVTKSFNRGEC
notes: anti-IGF-1R/anti-ErbB3 IgG2-(scFv)2: anti-IGF-1R IgG2 (module 5-7), anti-ErbB3 scFv (module 2-3); also called 14F; 14f
binding result [1]: binds | binding result [2]: binds

B2: M7-G1-M78 (bispecific antibody, human IgG1, lambda)
heavy: not shown
light: SSELTQDPAVSVALGQTVRITCQGDSLRSYYASWYQQKPGQAPVLVIYGKNNRPSGIPDRFSGSSSGNTASLTITGAQAEDEADYYCNSRDTPGNKWVFGGGTKVTVIGQPKAAPSVTLFPPSSEELQANKATLVCLVSDFYPGAVTVAWKADGSPVKVGVETTKPSKQSNNKYAASSYLSLTPEQWKSHRSYSCRVTHEGSTVEKTVAPAECS
notes: IgG1-(scFv)2: anti-ErbB3 Fab, anti-IGF-1R scFv; also called M7-M78; M7-78
pAKT IC50 (BxPC-3, IGF1 40 ng/ml) [3]: 3.8e-10 M | pAKT IC50 (BxPC-3, IGF1 400 ng/ml) [3]: 6.4e-10 M | pIGF1R IC50 (BxPC-3, IGF1 40 ng/ml) [3]: 1e-09 M | pIGF1R IC50 (BxPC-3, IGF1 400 ng/ml) [3]: 2.4e-09 M | pAKT IC50 (BxPC-3, HRG 20 ng/ml) [4]: 7.12e-11 M | pAKT IC50 (BxPC-3, HRG 200 ng/ml) [4]: 6.46e-11 M | pErbB3 IC50 (BxPC-3, HRG 20 ng/ml) [4]: 6.16e-11 M | pErbB3 IC50 (BxPC-3, HRG 200 ng/ml) [4]: 6.53e-11 M | pIGF1R IC50 (BxPC-3) [5]: 1.3e-09 M (inferred) | pErbB3 IC50 (BxPC-3) [6]: 2.6e-11 M (inferred) | binding result [7]: binds | binding result [8]: binds | binding result [9]: binds | % IGF1R Downregulation (A549, 24 h) [10]: 48% | % IGF1R Downregulation (BxPC-3, 24 h) [10]: 53% | pIGF1R % Inhibition (BxPC-3) [11]: 88% | pIGF1R IC50 (BxPC-3) [11]: 1.3e-09 M (inferred) | pErbB3 % Inhibition (BxPC-3) [12]: 111% | pErbB3 IC50 (BxPC-3) [12]: 2.6e-11 M (inferred)
